Experimental findings from the supplement of paper PMC9112550, “Optimization of the antimicrobial peptide Bac7 by deep mutational scanning” (BMC Biology, 2022) are described below.

The subject of the series is Escherichia coli TOP10. As to the kind of experiment: shrunken log2 fold change of peptide-encoding DNA abundance (4.5 h post-induction vs induction); higher = less antimicrobial activity (less host growth inhibition). As to conditions: time post-induction: 4.5 h; library: site-saturation at positions 5, 18, 19, 20.
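Further: peptides expressed intracellularly from a pBAD plasmid library in pooled LB shake-flask culture, induced with 0.3% L-arabinose, DNA abundance read by NGS, three biological replicates, DESeq2 with apeglm shrinkage.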

Regarding RRIRDRPPRLPRPRPRPPYSPRP, the “shrunken log2 fold change” value was -0.805.

As for RRIRSRPPRLPRPRPRPVGQPRP, the “shrunken log2 fold change” value was 0.236.

As to RRIRLRPPRLPRPRPRPLDVPRP, the “shrunken log2 fold change” value is -0.205.

For RRIRPRPPRLPRPRPRPSNTPRP, the “shrunken log2 fold change” value was -0.316.

On to RRIRERPPRLPRPRPRPAPDPRP, for which the “shrunken log2 fold change” value is 0.26.

With RRIRRRPPRLPRPRPRPKWFPRP, the “shrunken log2 fold change” value was -0.0159.

On to RRIRERPPRLPRPRPRPLREPRP, for which the “shrunken log2 fold change” value was 0.385.

On to RRIRQRPPRLPRPRPRPIRKPRP, for which the “shrunken log2 fold change” value was -0.0469.

Take RRIRERPPRLPRPRPRPKVIPRP: the “shrunken log2 fold change” value is -0.0206.

Take RRIRNRPPRLPRPRPRPKISPRP: the “shrunken log2 fold change” value was -0.484.

On to RRIRQRPPRLPRPRPRPQSGPRP, for which the “shrunken log2 fold change” value is -0.0474.

Regarding RRIRARPPRLPRPRPRPWPIPRP, the “shrunken log2 fold change” value came to 0.179.

Turning to RRIRPRPPRLPRPRPRPQMCPRP, the “shrunken log2 fold change” value is -0.101.

In the case of RRIRYRPPRLPRPRPRPENGPRP, the “shrunken log2 fold change” value is 0.0143.

RRIRARPPRLPRPRPRPPAWPRP: the “shrunken log2 fold change” value was 0.621.

Consider RRIRLRPPRLPRPRPRPAYTPRP, for which the “shrunken log2 fold change” value was -0.203.

As for RRIRARPPRLPRPRPRPNEFPRP, the “shrunken log2 fold change” value was -0.362.

On to RRIRKRPPRLPRPRPRPEMRPRP, for which the “shrunken log2 fold change” value turned out to be 0.105.

Consider RRIRDRPPRLPRPRPRPSIWPRP, for which the “shrunken log2 fold change” value stood at 0.262.

As to RRIRERPPRLPRPRPRPPELPRP, the “shrunken log2 fold change” value was 0.102.

Take RRIRRRPPRLPRPRPRPQENPRP: the “shrunken log2 fold change” value was -0.0472.

Consider RRIRARPPRLPRPRPRPCKHPRP, for which the “shrunken log2 fold change” value is -0.116.

Take RRIRWRPPRLPRPRPRPPYIPRP: the “shrunken log2 fold change” value is -0.3.

RRIRARPPRLPRPRPRPLCTPRP: the “shrunken log2 fold change” value stood at 0.223.

Turning to RRIRDRPPRLPRPRPRPSNMPRP, the “shrunken log2 fold change” value is -0.0872.

In the case of RRIRYRPPRLPRPRPRPLQAPRP, the “shrunken log2 fold change” value is -0.057.

As for RRIRHRPPRLPRPRPRPYERPRP, the “shrunken log2 fold change” value was -0.00674.

As for RRIRWRPPRLPRPRPRPANEPRP, the “shrunken log2 fold change” value was 0.134.

Turning to RRIRARPPRLPRPRPRPSPRPRP, the “shrunken log2 fold change” value turned out to be 0.818.

Turning to RRIRERPPRLPRPRPRPHPIPRP, the “shrunken log2 fold change” value is -0.0808.

Take RRIRTRPPRLPRPRPRPWQPPRP: the “shrunken log2 fold change” value was -0.0263.

As to RRIRERPPRLPRPRPRPYHHPRP, the “shrunken log2 fold change” value was -1.56.

As to RRIRQRPPRLPRPRPRPAELPRP, the “shrunken log2 fold change” value was -0.00135.

For RRIRERPPRLPRPRPRPKGSPRP, the “shrunken log2 fold change” value amounted to 0.00854.

Consider RRIRARPPRLPRPRPRPKVGPRP, for which the “shrunken log2 fold change” value was 0.284.

RRIRARPPRLPRPRPRPTSCPRP: the “shrunken log2 fold change” value was -0.15.

In the case of RRIRHRPPRLPRPRPRPIHDPRP, the “shrunken log2 fold change” value was -1.81.

As for RRIRPRPPRLPRPRPRPPARPRP, the “shrunken log2 fold change” value came out at 0.748.

Turning to RRIRVRPPRLPRPRPRPARRPRP, the “shrunken log2 fold change” value came to 0.382.

Consider RRIRMRPPRLPRPRPRPKPGPRP, for which the “shrunken log2 fold change” value is 1.31.

On to RRIRARPPRLPRPRPRPYARPRP, for which the “shrunken log2 fold change” value was -0.118.

With RRIRGRPPRLPRPRPRPEHTPRP, the “shrunken log2 fold change” value is 0.0464.

Take RRIRTRPPRLPRPRPRPCWRPRP: the “shrunken log2 fold change” value stood at 0.156.

Turning to RRIRIRPPRLPRPRPRPTRGPRP, the “shrunken log2 fold change” value was found to be 0.0292.

RRIRGRPPRLPRPRPRPWMPPRP: the “shrunken log2 fold change” value is 0.105.

As for RRIRDRPPRLPRPRPRPGYAPRP, the “shrunken log2 fold change” value came to 0.137.

In the case of RRIRVRPPRLPRPRPRPSELPRP, the “shrunken log2 fold change” value was -0.157.

Regarding RRIRSRPPRLPRPRPRPFNYPRP, the “shrunken log2 fold change” value turned out to be 0.0477.

In the case of RRIRQRPPRLPRPRPRPRFKPRP, the “shrunken log2 fold change” value is -0.128.

RRIRSRPPRLPRPRPRPEHQPRP: the “shrunken log2 fold change” value worked out at 0.163.

In the case of RRIRARPPRLPRPRPRPVPLPRP, the “shrunken log2 fold change” value is 0.263.

Consider RRIRFRPPRLPRPRPRPWFTPRP, for which the “shrunken log2 fold change” value is -0.574.

On to RRIRVRPPRLPRPRPRPERQPRP, for which the “shrunken log2 fold change” value came to 0.514.

As to RRIRARPPRLPRPRPRPVCGPRP, the “shrunken log2 fold change” value worked out at 0.653.

For the sequence RRIRLRPPRLPRPRPRPCFVPRP, the “shrunken log2 fold change” value is -0.392.

For the sequence RRIRVRPPRLPRPRPRPKSIPRP, the “shrunken log2 fold change” value is -0.172.

As to RRIRDRPPRLPRPRPRPKLEPRP, the “shrunken log2 fold change” value amounted to 0.434.

On to RRIRNRPPRLPRPRPRPNNYPRP, for which the “shrunken log2 fold change” value was -1.01.

As for RRIRNRPPRLPRPRPRPMCGPRP, the “shrunken log2 fold change” value is -0.301.

In the case of RRIRCRPPRLPRPRPRPECPPRP, the “shrunken log2 fold change” value was determined as 0.293.

With RRIRKRPPRLPRPRPRPVMGPRP, the “shrunken log2 fold change” value was 0.155.

In the case of RRIRHRPPRLPRPRPRPIRWPRP, the “shrunken log2 fold change” value was 0.171.

Consider RRIRKRPPRLPRPRPRPDCRPRP, for which the “shrunken log2 fold change” value is -0.00777.

For RRIRHRPPRLPRPRPRPTAIPRP, the “shrunken log2 fold change” value is -0.183.

As to RRIRNRPPRLPRPRPRPFSKPRP, the “shrunken log2 fold change” value was -0.303.

Consider RRIRLRPPRLPRPRPRPIVPPRP, for which the “shrunken log2 fold change” value came out at 0.0358.

As for RRIRYRPPRLPRPRPRPAWLPRP, the “shrunken log2 fold change” value is -0.0755.

For RRIRCRPPRLPRPRPRPINTPRP, the “shrunken log2 fold change” value was -0.329.

In the case of RRIRCRPPRLPRPRPRPWYPPRP, the “shrunken log2 fold change” value was -0.742.

As to RRIRMRPPRLPRPRPRPRARPRP, the “shrunken log2 fold change” value amounted to 1.67.

For the sequence RRIRYRPPRLPRPRPRPKGGPRP, the “shrunken log2 fold change” value was found to be 0.0198.

With RRIRTRPPRLPRPRPRPQHPPRP, the “shrunken log2 fold change” value stood at 0.0586.

RRIRHRPPRLPRPRPRPECEPRP: the “shrunken log2 fold change” value is 0.16.

Turning to RRIRWRPPRLPRPRPRPCGPPRP, the “shrunken log2 fold change” value stood at 0.183.

In the case of RRIRTRPPRLPRPRPRPIPKPRP, the “shrunken log2 fold change” value came to 0.103.

Regarding RRIRPRPPRLPRPRPRPAHTPRP, the “shrunken log2 fold change” value is -0.0311.

Regarding RRIRTRPPRLPRPRPRPCRLPRP, the “shrunken log2 fold change” value amounted to 0.0337.

RRIRMRPPRLPRPRPRPARYPRP: the “shrunken log2 fold change” value turned out to be 0.581.

Turning to RRIRDRPPRLPRPRPRPDYQPRP, the “shrunken log2 fold change” value worked out at 0.0708.

With RRIRPRPPRLPRPRPRPHTQPRP, the “shrunken log2 fold change” value is 0.0349.

For RRIRLRPPRLPRPRPRPGDEPRP, the “shrunken log2 fold change” value came out at 0.114.

Turning to RRIRLRPPRLPRPRPRPQTDPRP, the “shrunken log2 fold change” value is -0.139.

For RRIRTRPPRLPRPRPRPLENPRP, the “shrunken log2 fold change” value turned out to be 0.0394.

Turning to RRIRTRPPRLPRPRPRPDAVPRP, the “shrunken log2 fold change” value was determined as 0.171.

Take RRIRLRPPRLPRPRPRPLIPPRP: the “shrunken log2 fold change” value is -0.41.

RRIRTRPPRLPRPRPRPDVLPRP: the “shrunken log2 fold change” value is -0.208.

With RRIRRRPPRLPRPRPRPFFIPRP, the “shrunken log2 fold change” value is -0.0305.

For the sequence RRIRRRPPRLPRPRPRPGTRPRP, the “shrunken log2 fold change” value came to 0.117.

For the sequence RRIRWRPPRLPRPRPRPFGPPRP, the “shrunken log2 fold change” value came to 0.0591.

In the case of RRIRPRPPRLPRPRPRPFKKPRP, the “shrunken log2 fold change” value is -0.161.

As for RRIRNRPPRLPRPRPRPHGIPRP, the “shrunken log2 fold change” value was -0.154.

With RRIRHRPPRLPRPRPRPTKFPRP, the “shrunken log2 fold change” value was -0.138.

Take RRIRERPPRLPRPRPRPAFTPRP: the “shrunken log2 fold change” value is -0.0832.

Turning to RRIRNRPPRLPRPRPRPDGYPRP, the “shrunken log2 fold change” value turned out to be 0.171.

RRIRQRPPRLPRPRPRPWVLPRP: the “shrunken log2 fold change” value is 0.0639.

On to RRIRLRPPRLPRPRPRPWICPRP, for which the “shrunken log2 fold change” value is -0.213.

Consider RRIRQRPPRLPRPRPRPIEDPRP, for which the “shrunken log2 fold change” value was -0.126.

RRIRLRPPRLPRPRPRPENPPRP: the “shrunken log2 fold change” value is -0.173.

Consider RRIRRRPPRLPRPRPRPINCPRP, for which the “shrunken log2 fold change” value is -0.129.

Take RRIRRRPPRLPRPRPRPYWRPRP: the “shrunken log2 fold change” value stood at 0.0363.

For RRIRPRPPRLPRPRPRPYHQPRP, the “shrunken log2 fold change” value was 0.0122.

With RRIRKRPPRLPRPRPRPFGYPRP, the “shrunken log2 fold change” value is -0.0856.

With RRIRRRPPRLPRPRPRPTKDPRP, the “shrunken log2 fold change” value was determined as 0.209.

Turning to RRIRWRPPRLPRPRPRPFSRPRP, the “shrunken log2 fold change” value is -0.0399.

For RRIRTRPPRLPRPRPRPPDDPRP, the “shrunken log2 fold change” value is 0.408.

In the case of RRIRMRPPRLPRPRPRPHVVPRP, the “shrunken log2 fold change” value was -0.0448.

Turning to RRIRCRPPRLPRPRPRPFALPRP, the “shrunken log2 fold change” value is -0.33.

As to RRIRMRPPRLPRPRPRPWDGPRP, the “shrunken log2 fold change” value is 0.0785.

As for RRIRKRPPRLPRPRPRPPWDPRP, the “shrunken log2 fold change” value amounted to 0.68.

Turning to RRIRIRPPRLPRPRPRPLMMPRP, the “shrunken log2 fold change” value was -1.03.

As for RRIRFRPPRLPRPRPRPKAHPRP, the “shrunken log2 fold change” value is -0.0835.

With RRIRRRPPRLPRPRPRPTQFPRP, the “shrunken log2 fold change” value was 0.384.

In the case of RRIRSRPPRLPRPRPRPCDMPRP, the “shrunken log2 fold change” value is -0.184.

As to RRIRRRPPRLPRPRPRPENAPRP, the “shrunken log2 fold change” value came to 0.115.

Regarding RRIRKRPPRLPRPRPRPLSLPRP, the “shrunken log2 fold change” value was -0.131.

For the sequence RRIRRRPPRLPRPRPRPDTQPRP, the “shrunken log2 fold change” value was 0.162.

Turning to RRIRIRPPRLPRPRPRPLMPPRP, the “shrunken log2 fold change” value worked out at 1.27.

Turning to RRIRQRPPRLPRPRPRPGTIPRP, the “shrunken log2 fold change” value was -0.259.

In the case of RRIRERPPRLPRPRPRPMTCPRP, the “shrunken log2 fold change” value is -0.00926.

Regarding RRIRRRPPRLPRPRPRPDYDPRP, the “shrunken log2 fold change” value was -0.0449.

Take RRIRIRPPRLPRPRPRPWFWPRP: the “shrunken log2 fold change” value was -0.313.

Take RRIRNRPPRLPRPRPRPFMWPRP: the “shrunken log2 fold change” value was -0.134.

With RRIRWRPPRLPRPRPRPTDLPRP, the “shrunken log2 fold change” value was 0.0776.

As for RRIRERPPRLPRPRPRPASGPRP, the “shrunken log2 fold change” value came to 0.133.

In the case of RRIRKRPPRLPRPRPRPEKRPRP, the “shrunken log2 fold change” value was 0.81.
